Patent publication US20150037829A1 (MIT, published 2015)

Target: the molecule itself
Assay: gel filtration chromatography, self-association
Description: APX, fluorescent protein, or miniSOG preparations were diluted to the desired concentrations using chilled (4° C.) PBS and then allowed to incubate at room temperature for 30 min to overnight. Samples ([…]) were run on a Waters HPLC system over a Superdex 75 10/300 column (GE Healthcare) that had been pre-equilibrated in PBS, pH 7.4. Samples were run isocratically in PBS at a flow rate of 0.5 mL/min. Elution of APX was monitored at 280 nm and 405 nm (heme absorbance). Empower software (Waters) was used for analysis of elution profiles. Apparent MWs were determined against low molecular weight standards (GE). […] This estimation was applied for all proteins in FIG. 4d except wt APX, which was predominantly dimeric at 0.25 μM. The apparent MW of the monomer for wt APX was assumed to be equal to the apparent MW of mAPX at 0.25 μM.

B1: wild-type pea cytosolic ascorbate peroxidase (APX), N-terminally His6-tagged (enzyme)
chain: RGKSYPTVSPDYQKAIEKAKRKLRGFIAEKKCAPLILRLAWHSAGTFDSKTKTGGPFGTIKHQAELAHGANNGLDIAVRLLEPIKEQFPIVSYADFYQLAGVVAVEITGGPEVPFHPGREDKPEPPPEGRLPDATKGSDHLRDVFGKAMGLSDQDIVALSGGHTIGAAHKERSGFEGPWTSNPLIFDNSYFTELLTGEKDGLLQLPSDKALLTDSVFRPLVEKYAADEDVFFADYAEAHLKLSELGFAEA
modifications: heme cofactor (non-covalent)
notes: the entries describe its self-association (homodimer) in gel filtration; also called wt APX; wtAPX; not shown: N-terminal His6-tag
Question: Does B1 bind?
Answer: binds
